This passage reports protein stability index results from the supplement of paper PMC10567573.

± gives the standard deviation.

This data set in a line: protein stability index of a GFP-peptide fusion (GPS, HEK-293T) (PSI 1-6); higher = more stable. The note with it: c terminus: a fixed tail appended.
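Also: 24-mer peptide tiles fused after GFP, lentivirally expressed, FACS-sorted into six equal bins by GFP/DsRed ratio, decoded by Illumina sequencing, PSI is the read-weighted mean bin number.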

Take HFDLRDDDDAEEEGPKRELGVRRP [TCF25]: the protein stability index is 5.32 ± 0.26 (treatment: DMSO) and 5.24 ± 0.3 (treatment: MLN4924 1 uM, 8 h).

As to HGLAFWFDVAFIGSIMTVWLSTAP [CARM1], the protein stability index turned out to be 2.78 ± 0.33 (treatment: DMSO) and 3.1 ± 0.53 (treatment: MLN4924 1 uM, 8 h).

Regarding HHSLASSLRSHHTHPSYGPPGVPP [DVL3], the protein stability index worked out at 3.51 ± 0.29 (treatment: DMSO) and 3.58 ± 0.22 (treatment: MLN4924 1 uM, 8 h).

Turning to HKVLELTAENERLQKKVEQLSREL [CEBPB], the protein stability index runs as follows: (treatment: DMSO) 5.76 ± 0.23; (treatment: MLN4924 1 uM, 8 h) 5.811 ± 0.011.

Take HLCLRKADQKLVIIKQIPVEQMTK [NEK8]: the protein stability index turned out to be 2.46 ± 0.19 (treatment: DMSO) and 2.75 ± 0.23 (treatment: MLN4924 1 uM, 8 h).

For the sequence HLDPGFLASDKTSAGNAPLNEEIN [C18orf25], the protein stability index is, setting by setting: (treatment: DMSO) 4.75 ± 0.29; (treatment: MLN4924 1 uM, 8 h) 4.97 ± 0.33.

For HLGCAVYQDMIYAVGGRDDTTELS [KLHL20], the protein stability index reads like this: (treatment: DMSO) 3.39 ± 0.14; (treatment: MLN4924 1 uM, 8 h) 3.38 ± 0.17.

For the sequence HPANRSCRETGSFLDLFRYRVLLG [SLC22A15], the protein stability index stood at 2.48 ± 0.44 (treatment: DMSO) and 2.15 ± 0.42 (treatment: MLN4924 1 uM, 8 h).

As to HPCGDKNCPAHWLAQDWERCNTTC [ADAMTSL2], the protein stability index reads like this: (treatment: DMSO) 4.21 ± 0.14; (treatment: MLN4924 1 uM, 8 h) 3.99 ± 0.26.

Turning to HQEGAKMAVRLAGGLQKMVALLNK [CTNNB1], the protein stability index is, setting by setting: (treatment: DMSO) 2.4 ± 0.11; (treatment: MLN4924 1 uM, 8 h) 2.42 ± 0.27.

As for HQRIHTGEKPFECNECGKAFRWGA [ZNF232], the protein stability index is, setting by setting: (treatment: DMSO) 2.64 ± 0.5; (treatment: MLN4924 1 uM, 8 h) 2.61 ± 0.67.

On to HRKAVHLRTRGRTRGWVQTLARMS [C6orf223], for which the protein stability index reads like this: (treatment: DMSO) 2.57 ± 0.34; (treatment: MLN4924 1 uM, 8 h) 2.49 ± 0.17.

Regarding HRNLSQLPNFAFSVPLAYFLLSQQ [TCF25], the protein stability index is 2.26 ± 0.56 (treatment: DMSO) and 2.65 ± 0.26 (treatment: MLN4924 1 uM, 8 h).

As to HRTVKLVPWSQCLQNFLLHGTKNV [WSB1], the protein stability index by setting is: (treatment: DMSO) 2.19 ± 0.17; (treatment: MLN4924 1 uM, 8 h) 1.99 ± 0.21.

On to HSGEKPYKCSDCGKTFKQSSNLGQ [ZNF232], for which the protein stability index turned out to be 3.76 ± 0.3 (treatment: DMSO) and 3.57 ± 0.37 (treatment: MLN4924 1 uM, 8 h).

In the case of HSGTKRDPKEDVFQQNHLFWLQNS [PHTF1], the protein stability index by setting is: (treatment: DMSO) 3.42 ± 0.25; (treatment: MLN4924 1 uM, 8 h) 3.33 ± 0.26.

In the case of HSKASLPTGEGSISHEEQKSVRLA [CHCHD6], the protein stability index by setting is: (treatment: DMSO) 5.14 ± 0.2; (treatment: MLN4924 1 uM, 8 h) 5.15 ± 0.17.

On to HSKQYRCLSFQPECSMKLTPLVLE [VDR], for which the protein stability index by setting is: (treatment: DMSO) 2.5 ± 0.29; (treatment: MLN4924 1 uM, 8 h) 2.42 ± 0.14.

Consider HSQELTNEKEKALQAQVQYQQQHE [SASS6], for which the protein stability index was determined as 5.45 ± 0.26 (treatment: DMSO) and 5.51 ± 0.14 (treatment: MLN4924 1 uM, 8 h).

Take HTGEKPYTCHECGDSFSHSSNRIR [ZNF263]: the protein stability index was 2.67 ± 0.2 (treatment: DMSO) and 3.4 ± 0.48 (treatment: MLN4924 1 uM, 8 h).

As for HVDSIKFCGATIAGLSLLSPSVMR [ALKBH7], the protein stability index (treatment: DMSO) is 2.2 ± 0.81 and the protein stability index (treatment: MLN4924 1 uM, 8 h) was 2.19 ± 0.39.

As to HVRHMAYQLCHALRFLHENQLTHT [CLK3], the protein stability index (treatment: DMSO) is 3.06 ± 0.3 and the protein stability index (treatment: MLN4924 1 uM, 8 h) turned out to be 3.01 ± 0.38.

As to HVRQGVFSSLNHIVEKRVLAHLAP [INTS3], the protein stability index runs as follows: (treatment: DMSO) 2.32 ± 0.21; (treatment: MLN4924 1 uM, 8 h) 2.41 ± 0.12.

HYAGQDATDPFVAFHINKGLVKKY [FADS1]: the protein stability index runs as follows: (treatment: DMSO) 3.21 ± 0.26; (treatment: MLN4924 1 uM, 8 h) 3.14 ± 0.11.

Consider IAIVSVMVILISIVIFCLETLPEL [KCNA1], for which the protein stability index runs as follows: (treatment: DMSO) 2.39 ± 0.25; (treatment: MLN4924 1 uM, 8 h) 2.44 ± 0.16.

With ICDRTATPLDAFRMTSAAHYYPKL [GFOD1], the protein stability index is 2.85 ± 0.21 (treatment: DMSO) and 2.82 ± 0.16 (treatment: MLN4924 1 uM, 8 h).

Turning to ICEATQIIDYLEQTFLDERTPRLM [GDAP1], the protein stability index worked out at 2.39 ± 0.24 (treatment: DMSO) and 2.45 ± 0.18 (treatment: MLN4924 1 uM, 8 h).

For ICEQAEYHMFQREKVEVQLPELFH [KCNAB2], the protein stability index stood at 3.17 ± 0.24 (treatment: DMSO) and 3.06 ± 0.29 (treatment: MLN4924 1 uM, 8 h).

On to ICPICLEMFTKPVVILPCQHNLCR [TRIM55], for which the protein stability index is, setting by setting: (treatment: DMSO) 2.42 ± 0.17; (treatment: MLN4924 1 uM, 8 h) 2.96 ± 0.51.

As for ICQGIRGLWGTTLTENTAENRELY [PKD2L1], the protein stability index runs as follows: (treatment: DMSO) 3.03 ± 0.19; (treatment: MLN4924 1 uM, 8 h) 3.37 ± 0.21.

For the sequence IEERKQGLEQFINKVAGHPLAQNE [SNX3], the protein stability index turned out to be 4.54 ± 0.13 (treatment: DMSO) and 4.31 ± 0.47 (treatment: MLN4924 1 uM, 8 h).

On to IELNPPEKMALDPYTELRKQPLRK [EFHC1], for which the protein stability index turned out to be 4.08 ± 0.2 (treatment: DMSO) and 4.21 ± 0.33 (treatment: MLN4924 1 uM, 8 h).

Take IFRSYSRGAQGVILVYDIANRWSF [RAB40A]: the protein stability index (treatment: DMSO) came to 2.53 ± 0.36 and the protein stability index (treatment: MLN4924 1 uM, 8 h) is 2.36 ± 0.35.

Take IFSLATEWVISTGHDKCVSWMCTR [WDFY1]: the protein stability index runs as follows: (treatment: DMSO) 2.94 ± 0.47; (treatment: MLN4924 1 uM, 8 h) 2.85 ± 0.66.

Regarding IGCVFAELLTGQPLWPGKSDVDQL [CDKL4], the protein stability index worked out at 2.09 ± 0.32 (treatment: DMSO) and 2.15 ± 0.57 (treatment: MLN4924 1 uM, 8 h).

IHGTLHLERLAYLHARLRELLCEL [PRAME]: the protein stability index is, setting by setting: (treatment: DMSO) 2.04 ± 0.3; (treatment: MLN4924 1 uM, 8 h) 2.06 ± 0.31.
